This is an account of results in patent US20240360204A1 (UNITED STATES GOVERNMENT AS REPRESENTED BY THE DEPARTMENT …, published 2024).

As usually defined, the Kd is the constant that tells how readily two partners part at equilibrium.

The target of experiment [1] is T1, Oxygen stable streptolysin O (SLOwt) from Streptococcus pyogenes, recombinant, N-terminal His-tag, BirA … (Streptococcus pyogenes, UniProt Q5XE40 32-571, limits assumed, mono-biotinylated at the BirA (AviTag) site where biotinylated SLOwt was used (ELISA; one lane of the Western blot)).
T1 construct: The oxygen-stability change (C to A at position 555) and the tags are kept; also called WT SLO
Nature of the experiment: ELISA.

Experiment [2] addresses T1, Oxygen stable streptolysin O (SLOwt) …. Kind of experiment: cell-based or functional assay.

B1: hu55C11λ (antibody, human IgG1, V domains shown)
VH: QVQLVESGGGLVKPGGSLRLSCAASGFTFSSHSMNWVRQTPGKGLEWVSSINTISTFIYYADSVKGRFTVSRDNARNSLFLQMNTLTADDTGVYYCARERGNRFCDGDCYSGTTFDYWGPGTLVTVSS
VL: QPVLTQPPSVSVAPGRTSRITCEENNIGTKNVHWYQQKPGQAPLLVVHDDSDRPSGIPERFSGSNSGNTATLTISRVEAGDEADYYCQVWDSDNDRWLFGGGTRLTVLG
notes: also called 55c11 IgG antibody
Consider B1, for which, in experiment [1], the Kd was 0.038 nM. In experiment [2], the “aCTX IC50 (M): anti-cytotoxicity on epithelial cells (A549)” value (“aCTX IC50 (M): anti-cytotoxicity” below) came to 2.6e-09 M, the “aHU IC50 (M): neutralization of SLOwt-induced RBC hemolysis” value (from here on “aHU IC50 (M): neutralization”) came out at 4.4e-09 M, the “aMBEP IC50 (M): anti-membrane binding on epithelial cells” value is 1.1e-09 M and the “aMBRBC IC50 (M): anti-membrane binding on RBCs” value was determined as 1.3e-09 M.

B2: hu55L17κ (antibody, human IgG1, V domains shown)
VH: QVQLVQSGAEVKKPGSSVKVSCRPPGGTLSNYAINWVRQAPGQGLEWMGGIVPMFSTTKYAQKFQGRLTLTADLSTITAHMELNRLTSEDTAVYYCARDLPAPYCSADLCYKVLDAFDVWGQGTLVTVSS
VL: EIVLTQSPSSLSASVGDRVTITCQASQDISNYLNWYQQKPGKAPKLLIYKASSLESGVPSRFSGSGSGTEFTLTITRLQPDDFATYYCQQYEEYLRYSFGQGTKLEIK
notes: also called 55L17 IgG antibody
Turning to B2, the Kd in experiment [1] stood at 0.078 nM. Also, in experiment [2], the “aCTX IC50 (M): anti-cytotoxicity” value was 1.1e-09 M and the “aHU IC50 (M): neutralization” value was 2.7e-09 M.

B3: hu55G4λ (antibody, human IgG1, V domains shown)
VH: EVQLVQSGGGAVQPGRSLRLSCAVSGFTFSNFPMHWVRQAPGRGLEWVAVISHDETMIYYLDSVKGRFTISRDNSRNIVYLQMHSLRVEDTAVYYCARDTGVCSGGYCYTPRYFDQWGQGTLVTVSS
VL: QPVLTQPPSVSVAPGKTADITCGGDNIGRKHVHWYRQRPSQAPLLVIYDDSDRPSGIPERLSGINSGNTATLTISGVEVGDEADYYCQVWDNDAEQWVFGGGTKLTV
notes: also called 55G4 IgG antibody; 55LG4
In the case of B3, the dissociation constant Kd in experiment [1] is 0.046 nM. Further, in experiment [2], the “aCTX IC50 (M): anti-cytotoxicity” value was 5.1e-09 M, the “aHU IC50 (M): neutralization” value is 6.3e-09 M, the “aMBEP IC50 (M): anti-membrane binding on epithelial cells” value stood at 2e-09 M and the “aMBRBC IC50 (M): anti-membrane binding on RBCs” value stood at 7.9e-09 M.
